Laboratory results published in patent US20250109209A1 (ABSCI, published 2025).
Where a chain is given by its changes, count along the chain named.

T1: human TL1A (human, UniProt O95150 72-251)
T1 construct: Antigen in SPR and ELISA; Also used here for places that print only 'TL1A' and for endogenous TL1A in human whole blood; also called TNFSF15
T1 sequence (looked up): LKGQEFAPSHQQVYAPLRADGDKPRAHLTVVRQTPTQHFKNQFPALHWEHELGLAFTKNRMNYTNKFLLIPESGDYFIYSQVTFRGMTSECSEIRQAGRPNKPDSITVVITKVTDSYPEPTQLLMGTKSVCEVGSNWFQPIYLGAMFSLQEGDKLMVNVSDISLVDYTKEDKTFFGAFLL

T2: Cyno TL1A (cyno, UniProt G7PRK8 72-251)
T2 sequence: T1 sequence (looked up) with F39L, I78V

B1: Antibody 51 (Fab format) (Fab, V domains shown)
VH: QVQLQESGPGLVRPSQTLSLTCTVSGFDIQDTYMHWVRQRPGRGLEWMGRIEPAGGHTKYNPSLKSRVTITRDTSKNQVSLRLSSVTAADTAVYYCVRSGGLPDAWGQGSLVTVSS
VL: DIQMTQSPSSLSASVGDRVTITCRASQGVEYMYWYQQKPGKAPKLLIYGASNLASGVPSRFSGSGSGTDFTFTISSLQPEDIATYYCQQWEGNPRTFGQGTKVEIK
notes: Backup lead, Fab format
B2: Antibody 9 (Fab format) (Fab, V domains shown)
VH: B1 VH
VL: B1 VL with E30G, G49S
notes: High priority lead, Fab format
B3: Antibody 10 (Fab format) (Fab, V domains shown)
VH: B1 VH with F27L, I29P, Q30D, R98I, A105V
VL: B1 VL
notes: as for B2
B4: Antibody 11 (Fab format) (Fab, V domains shown)
VH: B1 VH with I29M, Q30G, L102M, A105V
VL: B1 VL with G49S
notes: as for B2
B5: Antibody 12 (Fab format) (Fab, V domains shown)
VH: B1 VH with Q30T, A105V
VL: B1 VL with G49S
notes: as for B2
B6: Antibody 13 (Fab format) (Fab, V domains shown)
VH: B1 VH with I29Y, E52D, G55S, V97A, R98V, L102M, A105V
VL: B1 VL with G49A, A50T
notes: as for B2
B7: Antibody 14 (Fab format) (Fab, V domains shown)
VH: B1 VH with F27L, I29P, Q30D, R98I, A105V
VL: B1 VL with V29I, E30Y
notes: as for B2
B8: Antibody 15 (Fab format) (Fab, V domains shown)
VH: B1 VH
VL: B1 VL with V29I, E30Y
notes: as for B2
B9: Antibody 16 (Fab format) (Fab, V domains shown)
VH: B1 VH with I29M, D31S, A105V
VL: B1 VL
notes: as for B2
B10: Antibody 17 (Fab format) (Fab, V domains shown)
VH: B1 VH with I29M, Q30G, G55A, A105V
VL: B1 VL
notes: as for B2
B11: Antibody 18 (Fab format) (Fab, V domains shown)
VH: B1 VH with I29M, Q30G, L102M, A105V
VL: B1 VL with Q27S, G28S, E30S, G49Y
notes: as for B2
B12: Antibody 19 (Fab format) (Fab, V domains shown)
VH: B1 VH with Q30T, A105V
VL: B1 VL with G49Y
notes: as for B2
B13: Antibody 20 (Fab format) (Fab, V domains shown)
VH: B1 VH with G55S, V97A, L102M, A105M
VL: B1 VL with E30M
notes: as for B2
B14: Antibody 24 (Fab format) (Fab, V domains shown)
VH: B1 VH
VL: B1 VL with E30G, G49A, A50T
notes: Backup lead, Fab format
B15: Antibody 27 (Fab format) (Fab, V domains shown)
VH: B1 VH
VL: B1 VL with E30R, G49A, A50T
notes: Backup lead, Fab format
B16: Antibody 30 (Fab format) (Fab, V domains shown)
VH: B1 VH
VL: B1 VL with Q27S, G28S, E30S, G49S
notes: Backup lead, Fab format
B17: Antibody 33 (Fab format) (Fab, V domains shown)
VH: B1 VH
VL: B1 VL with G49A, A50T
notes: Backup lead, Fab format
B18: Antibody 34 (Fab format) (Fab, V domains shown)
VH: B1 VH with F27L, I29P, Q30D, R98I, A105V
VL: B1 VL with V29I, E30Y, G49A, A50T
notes: Backup lead, Fab format
B19: Antibody 39 (Fab format) (Fab, V domains shown)
VH: B1 VH
VL: B1 VL with Q27S, G28S, E30S, G49A, A50T
notes: Backup lead, Fab format
B20: Antibody 41 (Fab format) (Fab, V domains shown)
VH: B1 VH with Q30T, A105V
VL: B1 VL with Q27S, G28S, E30S, G49S
notes: Backup lead, Fab format
B21: Antibody 42 (Fab format) (Fab, V domains shown)
VH: B1 VH with Q30T, A105V
VL: B1 VL with E30G
notes: Backup lead, Fab format
B22: Antibody 45 (Fab format) (Fab, V domains shown)
VH: B1 VH with Q30E, G55S, V97A, R98I, L102V, A105V
VL: B1 VL with Q27S, G28S, E30S, G49A, A50T
notes: Backup lead, Fab format
B23: Antibody 53 (Fab format) (Fab, V domains shown)
VH: B1 VH with G55S, V97A, L102M, P103M, A105R
VL: B1 VL with E30R
notes: Backup lead, Fab format
B24: Antibody 1 (Fab format) (Fab, V domains shown)
VH: B1 VH with V97A, R98S, L102M, A105L
VL: B1 VL
notes: High priority lead, Fab format; also called Lead #1
B25: Antibody 2 (Fab format) (Fab, V domains shown)
VH: B1 VH with F27L, I29P, Q30D, R98I, A105V
VL: B1 VL with Q27S, G28S, E30S, G49A, A50T
notes: as for B2
B26: Antibody 3 (Fab format) (Fab, V domains shown)
VH: B1 VH
VL: B1 VL with E30R
notes: as for B2
B27: Antibody 4 (Fab format) (Fab, V domains shown)
VH: B1 VH with I29M, Q30A, A105M
VL: B1 VL with Q27S, G28S, E30S
notes: as for B2
B28: Antibody 5 (Fab format) (Fab, V domains shown)
VH: B1 VH with I29M, G55S, A105V
VL: B1 VL with E30M
notes: as for B2
B29: Antibody 6 (Fab format) (Fab, V domains shown)
VH: B1 VH with I29M, Q30A, A105M
VL: B1 VL with G49S
notes: as for B2
B30: Antibody 7 (Fab format) (Fab, V domains shown)
VH: B1 VH with I29M, Q30G, G55A, A105I
VL: B1 VL
notes: as for B2
B31: Antibody 8 (Fab format) (Fab, V domains shown)
VH: B1 VH with I29M, D31S, A105V
VL: B1 VL with Q27S, G28S, E30S
notes: as for B2

The binders below were run against T1, human TL1A (assay: SPR, Fab format).

| Binder | binding result | Kd |
| --- | --- | --- |
| B1 | binds |  |
| B2 |  | < 1 nM |
| B3 |  | < 1 nM |
| B4 |  | < 1 nM |
| B5 |  | < 1 nM |
| B6 |  | < 1 nM |
| B7 |  | < 1 nM |
| B8 |  | < 1 nM |
| B9 |  | < 1 nM |
| B10 |  | < 1 nM |
| B11 |  | < 1 nM |
| B12 |  | < 1 nM |
| B13 |  | < 1 nM |
| B14 | binds |  |
| B15 | binds |  |
| B16 | binds |  |
| B17 | binds |  |
| B18 | binds |  |
| B19 | binds |  |
| B20 | binds |  |
| B21 | binds |  |
| B22 | binds |  |
| B23 | binds |  |

These binders were tested against T1, human TL1A (assay: SPR, Fab format, average).

| Binder | Kd |
| --- | --- |
| B24 | 0.17 nM |
| B25 | 0.2 nM |
| B26 | 0.31 nM |
| B27 | 0.33 nM |
| B28 | 0.33 nM |
| B29 | 0.41 nM |
| B30 | 0.43 nM |
| B31 | 0.38 nM |
| B2 | 0.43 nM |
| B3 | 0.48 nM |
| B4 | 0.48 nM |
| B5 | 0.43 nM |
| B6 | 0.43 nM |
| B7 | 0.7 nM |
| B8 | 0.5 nM |
| B9 | 0.51 nM |
| B10 | 0.57 nM |
| B11 | 0.67 nM |
| B12 | 0.72 nM |
| B13 | 0.76 nM |

The binders below were run against T2, Cyno TL1A (assay: SPR, Fab format, average).

| Binder | Kd |
| --- | --- |
| B24 | 0.17 nM |
| B25 | 0.94 nM |
| B26 | 0.62 nM |
| B27 | 0.16 nM |
| B28 | 0.79 nM |
| B29 | 0.26 nM |
| B30 | 1.63 nM |
| B31 | 3.26 nM |
| B2 | 1.99 nM |
| B3 | 1.83 nM |
| B4 | 0.38 nM |
| B5 | 1.29 nM |
| B6 | 0.34 nM |
| B7 | 4.25 nM |
| B8 | 1.81 nM |
| B9 | 0.32 nM |
| B10 | 0.33 nM |
| B11 | 1.28 nM |
| B12 | 5.14 nM |
| B13 | 1.28 nM |

The binders below were run against T1, human TL1A (assay: SPR, Fab lysate, average).

| Binder | Kd |
| --- | --- |
| B24 | 0.17 nM |
| B25 | 0.2 nM |
| B26 | 0.31 nM |
| B27 | 0.33 nM |
| B28 | 0.33 nM |
| B29 | 0.41 nM |
| B30 | 0.43 nM |
| B31 | 0.38 nM |
| B2 | 0.43 nM |
| B3 | 0.48 nM |
| B4 | 0.48 nM |
| B5 | 0.43 nM |
| B6 | 0.43 nM |
| B7 | 0.7 nM |
| B8 | 0.5 nM |
| B9 | 0.51 nM |
| B10 | 0.57 nM |
| B11 | 0.67 nM |
| B12 | 0.72 nM |
| B13 | 0.76 nM |
